In publication PMC6282620, “Structural and biochemical characterization of Plasmodium falciparum Hsp70‐x reveals functional versatility of its C‐terminal EEVN motif” (Proteins, 2018):
pKd: −log10 of the molar value.

Experiments:
[1] = target: Plasmodium falciparum Hsp70‐x (full length) (Plasmodium falciparum); experiment: SPR; PfHsp70‐x or PfHsp70‐xT immobilised on ProteOn GLC chips, hHop as analyte at 125-2000 nM, 25°C, PBS‐Tween pH 7.4, no nucleotide, Langmuir model
[2] = target: PfHsp70‐x C‐terminal truncated version with a missing EEVN motif (Plasmodium falciparum); experiment: as above
[3] = target: Plasmodium falciparum Hsp70‐x (full length) (Plasmodium falciparum); experiment: SPR; PfHsp70‐x or PfHsp70‐xT immobilised on ProteOn GLC chips, hHop as analyte at 125-2000 nM, 25°C, PBS‐Tween pH 7.4, with 5 mM ATP, Langmuir model
[4] = target: PfHsp70‐x C‐terminal truncated version with a missing EEVN motif (Plasmodium falciparum); experiment: as above
[5] = target: Plasmodium falciparum Hsp70‐x (full length) (Plasmodium falciparum); experiment: SPR; PfHsp70‐x or PfHsp70‐xT immobilised on ProteOn GLC chips, hHop as analyte at 125-2000 nM, 25°C, PBS‐Tween pH 7.4, with 5 mM ADP, Langmuir model
[6] = target: PfHsp70‐x C‐terminal truncated version with a missing EEVN motif (Plasmodium falciparum); experiment: as above

Substance: human Hsp70‐Hsp90 organizing protein (from UniProt P31948 1-543) (natural protein)
- pKd [1]: 7.52
- koff [1]: 2.3e-05 s⁻¹
- kon [1]: 4300 M⁻¹ s⁻¹
- pKd [2]: 5.68
- koff [2]: 1.01e-05 s⁻¹
- kon [2]: 24.7 M⁻¹ s⁻¹
- pKd [3]: 6.42
- koff [3]: 0.00044 s⁻¹
- kon [3]: 3470 M⁻¹ s⁻¹
- pKd [4]: 4.39
- koff [4]: 0.00032 s⁻¹
- kon [4]: 54.1 M⁻¹ s⁻¹
- pKd [5]: 7.64
- koff [5]: 3.7e-05 s⁻¹
- kon [5]: 3300 M⁻¹ s⁻¹
- pKd [6]: 5.78
- koff [6]: 2.1e-05 s⁻¹
- kon [6]: 42.6 M⁻¹ s⁻¹
